The supplement of paper PMC12042874
± gives the uncertainty stated by the source.

assay: amyloid nucleation score (Sup35N fusion, yeast selection) (log enrichment); library NNK1; higher = more nucleation; inactive = no reads after selection
In short: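 Using DiMSum, nucleation scores were taken as the log enrichment of output over input reads, centred on the mode score of non-aggregating sequences. The input and output reads came from Illumina sequencing of plasmid inserts, with sequences under 100 input reads excluded. The yeast were psi-negative, expressed Sup35N fused to peptides of 20 random codons, were induced with 100 μM copper sulfate for 24 hours, and were grown 7 days at 30°C on medium lacking adenine and uracil.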

Row | Substance | amyloid nucleation score
1 | DENDSGYELYFLGAGHTGSY | -0.157 ± 0.39
2 | DEPMSDLALVFMYYTVYPGG | 0.638 ± 0.55
3 | DESFCVVLFFFLCCLWFCHL | 0.184 ± 0.7
4 | DEVIF | 0.421 ± 0.52
5 | DEWLDPEASERRRGPGDWAL | 0.55 ± 0.74
6 | DFASVEFWLIALPSQMCWFF | 0.056 ± 0.76
7 | DFGLYLNNFCNGMHSFDLFN | -0.378 ± 0.19
8 | DFIKTTQSFQYQRAD | -0.717 ± 0.26
9 | DFMALI | -0.013 ± 0.25
10 | DFNYPDSSCLGFKCLNAHWV | -0.731 ± 0.33
11 | DFSRWIFMTHY | -1.06 ± 0.99
12 | DFSYYLWGMSV | -0.991 ± 2.4
13 | DGDSLGCYWDASLARQCFGR | -0.086 ± 0.29
14 | DGLSFLMEHLCVNTLCKGSR | -0.075 ± 0.34
15 | DGTSPRQLKCMLKFLFDVWD | 2.94 ± 0.2
16 | DGVVCMNAVCFQTMYVMYWL | 6.69 ± 0.08
17 | DHGGVVPSNPGYNMARSLRF | 0.465 ± 0.46
18 | DHMRYSTRRWQYPTSVVLSG | 0.543 ± 0.25
19 | DHTHLTTQNDICLMVSFTVE | 2.7 ± 0.096
20 | DIFYLCFRVYSEVGLSINVV | -0.529 ± 0.84
21 | DIIIWSSSRHYNVNCKSNSA | 0.55 ± 0.18
22 | DIMKSSKAHELVQSLPIEKR | 0.248 ± 0.64
23 | DINFNDGICGIKLYCYCISN | -0.713 ± 1.7
24 | DIRVLTPLRITFHLKAQGLL | -0.266 ± 1.4
25 | DIRWGVSFIKGNFHTEL | inactive

Row | Substance | amyloid nucleation score
26 | DIVHGGYRLWTCKFGDVRYC | -0.162 ± 0.32
27 | DKEYWSVSSVRYTTENGWI | 1.07 ± 0.47
28 | DLCPSGGVSDLCNPYGCFTL | -0.427 ± 0.71
29 | DLDVFYCWGAYLAEGDLVCE | 0.146 ± 0.41
30 | DLHLTNVSTRARPRLGLAAR | 0.705 ± 0.56
31 | DLIWNSSFVRLNVTNPLMFR | inactive
32 | DLLFAVYYELEHGFERVAGR | 4.78 ± 0.081
33 | DLNNGDAKSDRFYGSFLHSW | -0.612 ± 0.32
34 | DLRAVNLNSYSLLDSFTCFF | 5.59 ± 0.06
35 | DLVTH | 0.015 ± 0.83
36 | DLYGACEMWCAENSYGRFSV | 0.107 ± 0.95
37 | DMCNLTRLPLVYFM | -0.037 ± 1.7
38 | DMIKNAVNILLMMSVF | -0.399 ± 0.28
39 | DMPTS | 0.45 ± 0.75
40 | DNGLGKCSMQPEWHRAWGAR | 2.06 ± 0.13
41 | DNTWLFVAL | 0.918 ± 0.35
42 | DPTTLYIEV | 1.29 ± 0.39
43 | DPVSIMTGRQDPRGCGVTCF | -1.96 ± 2.7
44 | DPVYGLYGALFAMNPFMDYL | -0.427 ± 0.56
45 | DQGSWFH | -0.31 ± 1.1
46 | DQNVAPYVSKHGVQTILKRD | -1.51 ± 1.9
47 | DQSILRLYAWALRPGELELR | 3.15 ± 0.14
48 | DRFVVVLCFTDQ | 0.452 ± 0.46
49 | DRIFDHGIHMFSIVGQDLFT | inactive
50 | DRLWIWQGNIVASIYKSCLL | 5.41 ± 0.068

Row | Substance | amyloid nucleation score
51 | DRRSIAGFHCCWNSKVMVSP | -0.83 ± 0.88
52 | DRVWCHETKRSFYIMCKNNI | 0.052 ± 0.24
53 | DRYVYEFSYVLFWLFILVM | 0.128 ± 0.44
54 | DSELRMVISLYFCWLWSEWS | -0.623 ± 0.6
55 | DSGLLMKVSWKSDNC | -0.284 ± 0.39
56 | DSNATTHVRMKVSLTGRFLR | 4.8 ± 0.056
57 | DSNPNFCRLIKYVRNDCRTP | 0.012 ± 0.26
58 | DSPGSSGCKGATVHMSFTWG | 0.731 ± 0.61
59 | DSQFAVKFCAR | inactive
60 | DSRDVNSSLIIRVRVEDGTL | -1.2 ± 1.5
61 | DSVLLRFYDCCEMFYLHSLL | 0.48 ± 0.67
62 | DTFCQL | -0.147 ± 1.1
63 | DTLVDVVFDADVV | 0.26 ± 0.28
64 | DTNFYLFMTHG | 0.244 ± 1
65 | DTPRCRGVS | -0.197 ± 1.2
66 | DTSFYIMLNYITIQYNSFAG | 7.86 ± 0.054
67 | DTSNHEGE | -0.554 ± 1.7
68 | DTVVGSAFCQGMYLSESVML | 1.56 ± 0.76
69 | DVANRVVSSFLIC | -0.525 ± 0.45
70 | DVAYRGSGYGFSYFYFGMFS | 0.547 ± 0.5
71 | DVCASGRKIVRFFPMSARAQ | inactive
72 | DVDYLYPLYLVAGFMTNVRK | 0.535 ± 0.25
73 | DVGLFMK | -0.686 ± 0.53
74 | DVKFVVFSNRAWVCTSASKW | 4.01 ± 0.11
75 | DVLLFL | -0.779 ± 1.3

Row | Substance | amyloid nucleation score
76 | DVMAVCGIGRKYLIWYSCVR | -1.54 ± 0.79
77 | DVMLNCCGYCAPGGWVVVFS | 5.33 ± 0.089
78 | DVRAWVMARVGRGSELGARG | 0.075 ± 0.84
79 | DVRLRRYEGGQSSVTSHHDN | 0.028 ± 0.53
80 | DVTAPRLQIGLKVKHMKPFF | 0.423 ± 0.42
81 | DWAGMCFANSIHMDMLDRVL | 0.336 ± 0.4
82 | DWQMMVYRNAFLPR | -1.32 ± 1.3
83 | DYLVQGLHILVKWGYDRTDG | -0.187 ± 0.5
84 | DYRLKLLYYSSWSVLLYFVG | -0.142 ± 0.21
85 | DYRYTNCCWQSPKRRGWQSY | 0.967 ± 0.59
86 | DYVYHKAWKVKGTRAWKESL | -0.266 ± 1.4
87 | EAGLCSK | -0.316 ± 0.45
88 | ECDRCYSYGCVDHKAALG | 0.629 ± 0.72
89 | ECTCSIK | 0.03 ± 0.22
90 | ECVTCSWF | 0.011 ± 0.38
91 | EDCIWYVVGH | -2.18 ± 2.4
92 | EDEYQDPTTGVIHVVMGTCV | 0.044 ± 1.1
93 | EDMPFMTLKVIVFVTLMHLR | 2.02 ± 0.62
94 | EDMWNFDRSHGLWYEGTSAM | 0.72 ± 0.69
95 | EEDII | 1.96 ± 0.26
96 | EEPLIGLDKMPYPGTVYEIA | 0.066 ± 0.87
97 | EERRMSWWFERGCKLAVELS | -0.614 ± 0.8
98 | EFGRGSNRVEFIMGASLALT | 1.09 ± 0.17
99 | EFIGFRLFIQVNSDFM | 1.69 ± 0.23
100 | EFLDELSGVVYSLLGYEVTR | 2.63 ± 0.13

Row | Substance | amyloid nucleation score
101 | EFNDCGSLWFGFIRYIILMN | 0.081 ± 0.25
102 | EFTRRAYYDRNAQLFHMDQC | 2.19 ± 0.18
103 | EGATWIFQYLAGGVG | -0.534 ± 0.34
104 | EGICNYSSKYCQGMVLIGSS | -1.52 ± 1.5
105 | EGMFFRGSLSK | 3.31 ± 0.16
106 | EGNLVLSMLMY | -0.198 ± 0.47
107 | EGVHNSRKVEPGVKFGSGAR | 0.621 ± 1
108 | EHLISYATYEVLVSTWNSFE | inactive
109 | EHWSRSVGSHASVWFVAPAG | inactive
110 | EICYRMICCYSN | 0.085 ± 0.66
111 | EINKLS | -1.27 ± 1.1
112 | EIRQVECLTCMRQ | -0.839 ± 1.2
113 | EKGKLCKG | -0.101 ± 0.84
114 | EKMHQSYLSRYYIDR | 1.12 ± 0.54
115 | EKNYRICGFMGLLLFRIE | inactive
116 | ELDNCARLGADCKGLNAGRS | inactive
117 | ELFASTCGFYALHRLGSRPG | 3.04 ± 0.092
118 | ELMCFQQFKWKAMTYKWNGI | 0.337 ± 0.54
119 | ELSLRSSISVGEPVRDP | 1.14 ± 0.6
120 | ELSVRPCRVLYEHCGYRCEQ | 0.196 ± 0.49
121 | ELTNTFTV | -0.335 ± 0.37
122 | ELVSVGLSAIHSSDYNFSFN | 0.45 ± 0.7
123 | EMHFR | 0.024 ± 0.65
124 | EMKATIHLMLKINNTWFSVP | 2.07 ± 0.11
125 | EMWRYRRVGIPRLA | 0.358 ± 0.92

Row | Substance | amyloid nucleation score
126 | ENDVLELFRFSLCLCHRPGG | inactive
127 | ENGLFKF | 0.695 ± 0.32
128 | ENSPLK | 0.493 ± 0.4
129 | ENTLRSYRLGHKVEWLMELG | -0.363 ± 0.39
130 | EPYLISEFRRT | -0.364 ± 0.47
131 | EQPGVHYQNQFYKHVLYNAS | 0.587 ± 0.38
132 | EQTCVVGPQE | 0.397 ± 1
133 | ERAPASSMGSWYGIGKGNAV | -0.061 ± 1.1
134 | ERFCQGSCCNNFMGVFIRES | 5.68 ± 0.077
135 | ERNRHKVIMFMTSPWEMVIL | -1.06 ± 2.4
136 | ERVAQKILHLKSMPITARPV | 0.002 ± 1.1
137 | ERYPCDALDVDLRLTLCRKG | 0.222 ± 0.48
138 | ESHVWELDLGSWSRFGWRSR | 2.62 ± 0.11
139 | ESKVSGIVIFGGVEIAFYRG | 5.22 ± 0.1
140 | ESNVWICAPPTDPWAIQTLR | -0.149 ± 0.51
141 | ESTGQFYSPGSWVQGWTAYM | 0.398 ± 0.66
142 | ESYSYQGCFATYLQQNTWCT | -0.008 ± 0.28
143 | ETRTSTETRPCKLWFYDRM | -0.718 ± 1.2
144 | ETSVRMVFFVKRLTGYMNLR | -0.277 ± 0.33
145 | EVPSMRVNAPLKV | inactive
146 | EVVQMVFIFFRCSLVDGKEW | 0.405 ± 0.72
147 | EVYCIDVGDLSVSGKFDRSL | 1.54 ± 0.4
148 | EWGANYVGVDCSLVVRRQDV | 0.497 ± 0.93
149 | EWLDALKANTIFYWKYGSMI | 0.496 ± 0.63
150 | EWTSCMPLAFMLPLVILSFA | 0.532 ± 0.7

Row | Substance | amyloid nucleation score
151 | EYFLSQYRKFTGYFVVITAT | 1.47 ± 0.76
152 | EYFMRGLLWLI | 0.795 ± 0.39
153 | EYLCLI | 0.147 ± 0.45
154 | EYLSA | 0.403 ± 0.55
155 | EYVMIRHAVLIKMFSMLKRV | -0.577 ± 0.45
156 | FACTTSFSFMRWLRN | 0.903 ± 0.46
157 | FAELRFFCCDS | 2.45 ± 0.21
158 | FAFIDMHKGC | 1.69 ± 0.17
159 | FAPRSLGFYMNFFPRMMGQR | -0.88 ± 1.5
160 | FASARQLMQTTDKHSVWYVV | -1.87 ± 1.8
161 | FASKRWLWSVEQLSRLSNGT | -0.087 ± 0.21
162 | FASVTTIFFPSPLFFDIRWD | 1.09 ± 0.79
163 | FATQTVAACVQCLKTRSDVF | 0.029 ± 1.1
164 | FCAGGMGNCKCWLCFLRSTM | -1.33 ± 0.7
165 | FCEWYLTDDFFYSLCFFFNE | 0.031 ± 0.55
166 | FCILFSLIVTVGSLLRFLYR | 2.01 ± 0.1
167 | FCLVMEFM | 0.606 ± 0.4
168 | FCPPYLSHNNYYWLLVRVFV | 0.322 ± 0.37
169 | FCSKTFL | 1.35 ± 0.46
170 | FCWVGQNEWCRHLFELCLER | 0.517 ± 0.63
171 | FDDFHESARTGFNGKERSQM | 1.01 ± 0.19
